Experimental data reported in article PMC10296332, “Vertically-Ordered Mesoporous Silica Film Based Electrochemical Aptasensor for Highly Sensitive Detection of Alpha-Fetoprotein in Human Serum”.

Biological target: T1, alpha-fetoprotein (AFP) (UniProt P02771 19-609)
T1 sequence: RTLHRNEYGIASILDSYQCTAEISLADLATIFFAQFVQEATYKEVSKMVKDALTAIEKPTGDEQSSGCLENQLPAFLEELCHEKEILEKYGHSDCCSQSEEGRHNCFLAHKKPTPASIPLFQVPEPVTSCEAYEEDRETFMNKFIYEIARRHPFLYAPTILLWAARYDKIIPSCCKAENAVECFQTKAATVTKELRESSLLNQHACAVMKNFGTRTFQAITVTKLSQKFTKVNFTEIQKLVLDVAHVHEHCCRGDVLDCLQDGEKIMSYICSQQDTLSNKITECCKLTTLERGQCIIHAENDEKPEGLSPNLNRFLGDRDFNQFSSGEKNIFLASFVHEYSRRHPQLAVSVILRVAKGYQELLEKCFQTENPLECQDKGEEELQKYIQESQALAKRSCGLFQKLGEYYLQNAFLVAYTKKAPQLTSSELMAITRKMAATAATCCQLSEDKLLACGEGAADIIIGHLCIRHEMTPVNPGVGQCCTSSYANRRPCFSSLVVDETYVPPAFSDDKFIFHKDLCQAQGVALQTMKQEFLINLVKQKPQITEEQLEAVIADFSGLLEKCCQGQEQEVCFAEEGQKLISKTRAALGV
Experiment: electrochemical aptasensor (DPV, CV, EIS; Fe(CN)6 3-/4- probe); immobilized aptamer, BSA-blocked; linear 1 pg/mL-1 ug/mL, LOD 0.31 pg/mL (not a Kd); AFP incubated 1 h at 4 C on aptamer electrode, rinsed with 0.01 M PBS (sodium phosphate) pH 7.4; read-out in 2.5 mM K3/K4[Fe(CN)6], 0.1 M KCl
Conditions: protein: commercial

B1: AFP aptamer (ssDNA)
DNA: GTGACGCTCCTAACGCTGACTCAGGTGCAGTTCTCGACTCGGTCTTGATGTGGGTCCTGTCCGTCCGAACCAATC
modifications: 5'-NH2, coupled to GPTMS epoxy groups on mesoporous silica film
  binding result: binds
